B1: Krev interaction trapped protein 1 (Homo sapiens), O00522 (parent)
chain: MGNPENIEDAYVAVIRPKNTASLNSREYRAKSYEILLHEVPIEGQKKKRKKVLLETKLQGNSEITQGILDYVVETTKPISPANQGIRGKRVVLMKKFPLDGEKMGREASLFIVPSVVKDNTKYTYTPGCPIFYCLQDIMRVCSESSTHFATLTARMLIALDKWLDERHAQSHFIPALFRPSPLERIKTNVINPAYATESGQTENSLHMGYSALEIKSKMLALEKADTCIYNPLFGSDLQYTNRVDKVVINPYFGLGAPDYSKIQIPKQEKWQRSMSSVTEDKERQWVDDFPLHRSACEGDSELLSRLLSERFSVNQLDSDHWAPIHYACWYGKVEATRILLEKGKCNPNLLNGQLSSPLHFAAGGGHAEIVQILLNHPETDRHITDQQGRSPLNICEENKQNNWEEAAKLLKEAINKPYEKVRIYRMDGSYRSVELKHGNNTTVQQIMEGMRLSQETQQYFTIWICSENLSLQLKPYHKPLQHVRDWPEILAELTNLDPQRETPQLFLRRDVRLPLEVEKQIEDPLAILILFDEARYNLLKGFYTAPDAKLITLASLLLQIVYGNYESKKHKQGFLNEENLKSIVPVTKLKSKAPHWTNRILHEYKNLSTSEGVSKEMHHLQRMFLQNCWEIPTYGAAFFTGQIFTKASPSNHKVIPVYVGVNIKGLHLLNMETKALLISLKYGCFMWQLGDTDTCFQIHSMENKMSFIVHTKQAGLVVKLLMKLNGQLMPTERNS
B2: Protein HEG homolog 1 (Homo sapiens), Q9ULI3 (parent)
chain: MASPRASRWPPPLLLLLLPLLLLPPAAPGTRDPPPSPARRALSLAPLAGAGLELQLERRPEREPPPTPPRERRGPATPGPSYRAPEPGAATQRGPSGRAPRGGSADAAWKHWPESNTEAHVENITFYQNQEDFSTVSSKEGVMVQTSGKSHAASDAPENLTLLAETADARGRSGSSSRTNFTILPVGYSLEIATALTSQSGNLASESLHLPSSSSEFDERIAAFQTKSGTASEMGTERAMGLSEEWTVHSQEATTSAWSPSFLPALEMGELTTPSRKRNSSGPDLSWLHFYRTAASSPLLDLSSSSESTEKLNNSTGLQSSSVSQTKTMHVATVFTDGGPRTLRSLTVSLGPVSKTEGFPKDSRIATTSSSVLLSPSAVESRRNSRVTGNPGDEEFIEPSTENEFGLTSLRWQNDSPTFGEHQLASSSEVQNGSPMSQTETVSRSVAPMRGGEITAHWLLTNSTTSADVTGSSASYPEGVNASVLTQFSDSTVQSGGSHTALGDRSYSESSSTSSSESLNSSAPRGERSIAGISYGQVRGTAIEQRTSSDHTDHTYLSSTFTKGERALLSITDNSSSSDIVESSTSYIKISNSSHSEYSSFFHAQTERSNISSYDGEYAQPSTESPVLHTSNLPSYTPTINMPNTSVVLDTDAEFVSDSSSSSSSSSSSSSSGPPLPLPSVSQSHHLFSSILPSTRASVHLLKSTSDASTPWSSSPSPLPVSLTTSTSAPLSVSQTTLPQSSSTPVLPRARETPVTSFQTSTMTSFMTMLHSSQTADLKSQSTPHQEKVITESKSPSLVSLPTESTKAVTTNSPLPPSLTESSTEQTLPATSTNLAQMSPTFTTTILKTSQPLMTTPGTLSSTASLVTGPIAVQTTAGKQLSLTHPEILVPQISTEGGISTERNRVIVDATTGLIPLTSVPTSAKEMTTKLGVTAEYSPASRSLGTSPSPQTTVVSTAEDLAPKSATFAVQSSTQSPTTVSSSASVNSCAVNPCLHNGECVADNTSRGYHCRCPPSWQGDDCSVDVNECLSNPCPSTAMCNNTQGSFICKCPVGYQLEKGICNLVRTFVTEFKLKRTFLNTTVEKHSDLQEVENEITKTLNMCFSALPSYIRSTVHASRESNAVVISLQTTFSLASNVTLFDLADRMQKCVNSCKSSAEVCQLLGSQRRIFRAGSLCKRKSPECDKDTSICTDLDGVALCQCKSGYFQFNKMDHSCRACEDGYRLENETCMSCPFGLGGLNCGNPYQLITVVIAAAGGGLLLILGIALIVTCCRKNKNDISKLIFKSGDFQMSPYAEYPKNPRSQEWGREAIEMHENGSTKNLLQMTDVYYSPTSVRNPELERNGLYPAYTGLPGSRHSCIFPGQYNPSFISDESRRRDYF

Assays:
heg1_human HEG1, Q9ULI3 = variants of: B1; conditions: with heg1_human HEG1, Q9ULI3
ccm2_human CCM2, Q9BSQ5 = variants of: B1; conditions: with ccm2_human CCM2, Q9BSQ5
[1] = variants of: B1; conditions: with rap1a_mouse Rap1a
[2] = variants of: B2; conditions: with krit1_human KRIT1, O00522

Sequence of ccm2_human CCM2, Q9BSQ5 (Q9BSQ5 whole entry): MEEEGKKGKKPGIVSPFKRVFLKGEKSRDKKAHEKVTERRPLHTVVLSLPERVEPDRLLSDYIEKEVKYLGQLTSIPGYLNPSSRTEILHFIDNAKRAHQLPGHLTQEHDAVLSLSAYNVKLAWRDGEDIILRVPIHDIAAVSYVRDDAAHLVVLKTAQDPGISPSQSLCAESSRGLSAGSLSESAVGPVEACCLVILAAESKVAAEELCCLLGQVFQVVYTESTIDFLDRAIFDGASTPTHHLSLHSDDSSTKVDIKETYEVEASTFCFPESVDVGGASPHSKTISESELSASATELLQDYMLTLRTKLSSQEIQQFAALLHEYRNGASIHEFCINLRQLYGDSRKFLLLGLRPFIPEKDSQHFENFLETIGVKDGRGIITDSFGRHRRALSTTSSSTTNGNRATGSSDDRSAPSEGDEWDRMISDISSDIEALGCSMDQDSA

Variant | effect of a mutation on the interaction (heg1_human HEG1, Q9ULI3) | effect of a mutation on the interaction (ccm2_human CCM2, Q9BSQ5) | effect of a mutation on the interaction [1] | effect of a mutation on the interaction [2]
L717A;L721A | decreasing interaction strength | with no effect | with no effect | 
R452E |  |  | disrupting interaction strength | 
N1367A;F1370A |  |  |  | with no effect
